Consider 63 sequences from the supplement of paper PMC7877785.

± gives the uncertainty stated by the source.

A short description of the data set: self-splicing fitness, log relative to wild type (ln ratio); higher = more splicing; Tetrahymena group I intron in knt gene, E. coli kanamycin selection, DiMSum; sequences stand for … in CUCUCU…GGAGGGAAAAGUUAUCAGGCAUGCACCUGGUAGCUAGUCUUUAAACCAAUAGAUUGCAUCGGUUUAAAAGGCAAGACCGUCAAAUUGCGGGAAAGGGGUCAACAGCCGUUCAGUACCAAGUCUCAGGGGAAACUUUGAGAUGGCCUUGCAAAGGGUAUGGUAAUAAGCUGACGGACAUGGUCCUAACCACGCAGCCAAGUCCUAAGUCAACAGAUCUUCUGUUGAUAUGGAUGCAGUUCACAGACUAAAUGUCGGUCGGGGAAGAUGUAUUCUUCUCAUAAGAUAUAGUCGGACCUCUCCUUAAUGGGAGCUAGCGGAUGAAGUGAUGCAACACUGGAGCCGCUGGGAACUAAUUUGUAUGCGAAAGUAUAUUGAUUAGUUUUGGAGUACUCGUGGUCG
A digest of the protocol:
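DiMSum derived fitness as the error-weighted combination of fold changes across replicates, kanamycin versus no kanamycin, normalised to wild type. E. coli BL21(DE3) held the library, which randomised all eight P1ex-region intron nucleotides within the knt kanamycin-resistance gene on pET-22b(+). Six replicate transformations grew overnight at 37°C or 30°C on LB agar with or without 25 μg/mL kanamycin, also containing 100 μg/mL carbenicillin, 50 μM IPTG and 0.2% rhamnose, and pooled colonies were amplicon-sequenced on an Illumina HiSeq 2500.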

Turning to GCGAAGCAAUAUUACGACGU, the “self-splicing fitness (ln)” value runs as follows: (30 °C) -2.69 ± 0.21; (37 °C) -2.02 ± 0.2. Consider GCGAAGCAAUAUUACGAGAU, for which the “self-splicing fitness (ln)” value is -2.89 ± 0.2 (30 °C) and -1.86 ± 0.22 (37 °C). Regarding GCGAAGCAAUAUUACGAGUC, the “self-splicing fitness (ln)” value was -2.93 ± 0.13 (30 °C) and -2.33 ± 0.21 (37 °C). GCGAAGCAAUAUUACGCAAU: the “self-splicing fitness (ln)” value is, setting by setting: (30 °C) -3.2 ± 0.2; (37 °C) -2.07 ± 0.19.

As for GCGAAGCAAUAUUACGCGUA, the “self-splicing fitness (ln)” value is, setting by setting: (30 °C) -2.03 ± 0.16; (37 °C) -0.565 ± 0.13. On to GCGAAGCAAUAUUACGGAAG, for which the “self-splicing fitness (ln)” value reads like this: (30 °C) -2.62 ± 0.18; (37 °C) -1.93 ± 0.16. Regarding GCGAAGCAAUAUUACGGACU, the “self-splicing fitness (ln)” value was -0.302 ± 0.12 (30 °C) and 0.296 ± 0.13 (37 °C).

Turning to GCGAAGCAAUAUUACGGAGG, the “self-splicing fitness (ln)” value is, setting by setting: (30 °C) -2.1 ± 0.18; (37 °C) -0.467 ± 0.12. Consider GCGAAGCAAUAUUACGGCGC, for which the “self-splicing fitness (ln)” value runs as follows: (30 °C) -2.48 ± 0.29; (37 °C) -1.01 ± 0.43. Regarding GCGAAGCAAUAUUACGGCGG, the “self-splicing fitness (ln)” value runs as follows: (30 °C) -2.38 ± 0.19; (37 °C) -1.34 ± 0.27.

In the case of GCGAAGCAAUAUUACGGUAA, the “self-splicing fitness (ln)” value (30 °C) was -2.4 ± 0.15 and the “self-splicing fitness (ln)” value (37 °C) was -1.65 ± 0.12. For the sequence GCGAAGCAAUAUUACGGUGC, the “self-splicing fitness (ln)” value runs as follows: (30 °C) -3.75 ± 0.18; (37 °C) -2.95 ± 0.18.

For GCGAAGCAAUAUUACGUAAU, the “self-splicing fitness (ln)” value is, setting by setting: (30 °C) -1.22 ± 0.097; (37 °C) -1.07 ± 0.11.

For the sequence GCGAAGCAAUAUUACGUACG, the “self-splicing fitness (ln)” value (30 °C) is -2.46 ± 0.37 and the “self-splicing fitness (ln)” value (37 °C) was -2.24 ± 0.34. As to GCGCAGCAAUAUUACGAAGC, the “self-splicing fitness (ln)” value was -2.98 ± 0.25 (30 °C) and -2.37 ± 0.18 (37 °C). Taken in the same sequence, the figures for GCGCAGCAAUAUUACGAAGU were -0.905 ± 0.13 and -0.493 ± 0.16. As for GCGCAGCAAUAUUACGACAC, under “30 °C”, the “self-splicing fitness (ln)” value was -0.738 ± 0.38. In the case of GCGCAGCAAUAUUACGACCA, the “self-splicing fitness (ln)” value is, setting by setting: (30 °C) -1.56 ± 0.25; (37 °C) -0.19 ± 0.23. Regarding GCGCAGCAAUAUUACGAGCA, the “self-splicing fitness (ln)” value (30 °C) was -3.48 ± 0.21 and the “self-splicing fitness (ln)” value (37 °C) is -1.11 ± 0.14. Taken in the same sequence, the figures for GCGCAGCAAUAUUACGAGUA were -2.36 ± 0.11 and -0.845 ± 0.096. On to GCGCAGCAAUAUUACGAUUC, for which the “self-splicing fitness (ln)” value was -0.291 ± 0.09 (30 °C) and 0.1 ± 0.1 (37 °C). GCGCAGCAAUAUUACGCAAA: the “self-splicing fitness (ln)” value reads like this: (30 °C) -1.8 ± 0.087; (37 °C) -0.777 ± 0.078. As to GCGCAGCAAUAUUACGCAAG, the “self-splicing fitness (ln)” value was -3.82 ± 0.23 (30 °C) and -2.52 ± 0.15 (37 °C).

For the sequence GCGCAGCAAUAUUACGCAUC, the “self-splicing fitness (ln)” value was -0.685 ± 0.092 (30 °C) and -0.339 ± 0.098 (37 °C).

In the case of GCGCAGCAAUAUUACGCCAA, the “self-splicing fitness (ln)” value (37 °C) is -1.42 ± 0.47. Regarding GCGCAGCAAUAUUACGCGAA, the “self-splicing fitness (ln)” value reads like this: (30 °C) -0.172 ± 0.065; (37 °C) -0.153 ± 0.083. For the sequence GCGCAGCAAUAUUACGCUAG, the “self-splicing fitness (ln)” value runs as follows: (30 °C) -3.26 ± 0.28; (37 °C) -2.15 ± 0.33. Take GCGCAGCAAUAUUACGCUGC: where the note is “37 °C”, the “self-splicing fitness (ln)” value is -3.59 ± 0.43.

GCGCAGCAAUAUUACGGAUA: the “self-splicing fitness (ln)” value (30 °C) is -1.98 ± 0.16 and the “self-splicing fitness (ln)” value (37 °C) is -0.989 ± 0.13. With GCGCAGCAAUAUUACGGCUU, the “self-splicing fitness (ln)” value is 0.000989 ± 0.11 (30 °C) and 0.531 ± 0.15 (37 °C).

Consider GCGCAGCAAUAUUACGGGAC, for which the “self-splicing fitness (ln)” value (30 °C) is -2.13 ± 0.097 and the “self-splicing fitness (ln)” value (37 °C) was 0.393 ± 0.096. In the case of GCGCAGCAAUAUUACGGUCG, the “self-splicing fitness (ln)” value is, setting by setting: (30 °C) -2.26 ± 0.23; (37 °C) -1.81 ± 0.22. The like results for GCGCAGCAAUAUUACGUAGA were, in that order, -2.28 ± 0.1 and -0.72 ± 0.099. The like results for GCGCAGCAAUAUUACGUAUC were, in that order, -0.438 ± 0.068 and -0.609 ± 0.085.

As for GCGCAGCAAUAUUACGUCCA, the “self-splicing fitness (ln)” value was -1.63 ± 0.12 (30 °C) and -0.0959 ± 0.18 (37 °C). For the sequence GCGCAGCAAUAUUACGUGCU, the “self-splicing fitness (ln)” value by setting is: (30 °C) -4.09 ± 0.2; (37 °C) -2.87 ± 0.23. In the case of GCGCAGCAAUAUUACGUGUG, the “self-splicing fitness (ln)” value is -3.2 ± 0.12 (30 °C) and -2.65 ± 0.15 (37 °C). Taken in the same sequence, the figures for GCGCAGCAAUAUUACGUUAA were -1.45 ± 0.089 and -0.728 ± 0.088. As to GCGCAGCAAUAUUACGUUCA, the “self-splicing fitness (ln)” value is, setting by setting: (30 °C) -0.782 ± 0.098; (37 °C) 0.151 ± 0.1. Taken in the same sequence, the figures for GCGCAGCAAUAUUACGUUGA were -0.0364 ± 0.078 and -0.504 ± 0.085. For GCGGAGCAAUAUUACGACAC, the “self-splicing fitness (ln)” value (30 °C) is -0.913 ± 0.22. Regarding GCGGAGCAAUAUUACGACCA, the “self-splicing fitness (ln)” value (37 °C) was -1.68 ± 0.41.

In the case of GCGGAGCAAUAUUACGACUU, the “self-splicing fitness (ln)” value was -0.726 ± 0.15 (30 °C) and -1.48 ± 0.29 (37 °C). As to GCGGAGCAAUAUUACGCAUA, the “self-splicing fitness (ln)” value by setting is: (30 °C) -2.55 ± 0.49; (37 °C) -2.74 ± 0.36. Take GCGGAGCAAUAUUACGCUCA: the “self-splicing fitness (ln)” value (30 °C) is -0.528 ± 0.3 and the “self-splicing fitness (ln)” value (37 °C) is -0.54 ± 0.26. Regarding GCGGAGCAAUAUUACGCUGA, the “self-splicing fitness (ln)” value (30 °C) was -3.01 ± 0.35. For the sequence GCGGAGCAAUAUUACGCUUA, the “self-splicing fitness (ln)” value (37 °C) was found to be 1.64 ± 0.37.

Consider GCGGAGCAAUAUUACGGACU, for which the “self-splicing fitness (ln)” value was -3.06 ± 0.35 (30 °C) and -0.993 ± 0.19 (37 °C). Turning to GCGGAGCAAUAUUACGGGUU, the “self-splicing fitness (ln)” value by setting is: (30 °C) -4.22 ± 0.29; (37 °C) -1.49 ± 0.14. Taken in the same sequence, the figures for GCGGAGCAAUAUUACGGUUA were -2.84 ± 0.29 and -0.698 ± 0.21. GCGGAGCAAUAUUACGUCGU: the “self-splicing fitness (ln)” value (30 °C) is -4.11 ± 0.35 and the “self-splicing fitness (ln)” value (37 °C) is -2.24 ± 0.36. Turning to GCGGAGCAAUAUUACGUUCA, the “self-splicing fitness (ln)” value is, setting by setting: (30 °C) -0.896 ± 0.11; (37 °C) -0.33 ± 0.096. Take GCGUAGCAAUAUUACGAAGG: the “self-splicing fitness (ln)” value (37 °C) is -2.27 ± 0.5. For the sequence GCGUAGCAAUAUUACGACUG, the “self-splicing fitness (ln)” value is, setting by setting: (30 °C) -1.54 ± 0.17; (37 °C) -0.415 ± 0.17. In the case of GCGUAGCAAUAUUACGAGGG, the “self-splicing fitness (ln)” value (30 °C) is -3.37 ± 0.16 and the “self-splicing fitness (ln)” value (37 °C) is -1.96 ± 0.17.

As for GCGUAGCAAUAUUACGAUCC, the “self-splicing fitness (ln)” value (30 °C) was -2.41 ± 0.13 and the “self-splicing fitness (ln)” value (37 °C) was -0.852 ± 0.15. As to GCGUAGCAAUAUUACGAUUA, the “self-splicing fitness (ln)” value runs as follows: (30 °C) -0.494 ± 0.082; (37 °C) 0.608 ± 0.085. The like results for GCGUAGCAAUAUUACGCAAA were, in that order, -2.37 ± 0.33 and -3.44 ± 0.42. As for GCGUAGCAAUAUUACGCCCG, the “self-splicing fitness (ln)” value (37 °C) was determined as 0.544 ± 0.44.

Regarding GCGUAGCAAUAUUACGCCUA, the “self-splicing fitness (ln)” value is, setting by setting: (30 °C) -1.76 ± 0.45; (37 °C) -1.07 ± 0.35. GCGUAGCAAUAUUACGCGAG: the “self-splicing fitness (ln)” value (37 °C) is -2.54 ± 0.27. For GCGUAGCAAUAUUACGGAGG, the “self-splicing fitness (ln)” value (30 °C) was -3.61 ± 0.23 and the “self-splicing fitness (ln)” value (37 °C) is -1.98 ± 0.18. Regarding GCGUAGCAAUAUUACGGGCG, the “self-splicing fitness (ln)” value was -2.97 ± 0.22 (30 °C) and -2.09 ± 0.22 (37 °C).
